One block for each molecule: values may come before it. Bridge positions count the residues as written; N and C are the ends. Peptide text beside a SMILES is read from it.
What was measured:
[1] = Circular dichroism, alpha-helical content of peptides; type: physicochemical; settings: 30% aqueous trifluoroethanol
Description: Circular dichroism spectra were obtained using a Jasco Model J-710 spetropolarimeter at 20° C. using the following parameters: path length, 2 mm; step resolution, 0.1 nm; speed, 20 nm/min, accumulation, 4; response, 1 second; bandwidth, 1.0 nm. The peptides were analysed at a concentration of 0.5 mg/mL in 30% aqueous TFE. The alpha-helical content of the peptides were determined by methods described in Yang et al (1986), involving comparisons of spectra with model helical peptides.

[2] = test system: pre-B tumor cells from E-mu myc transgenic mice; experiment: Cell viability by propidium iodide exclusion, flow cytometry; type: cell-based; settings: Mus musculus, 24 h, read-out: % viable cells at 24 hours
Description: After 24 hours incubation at 37° C. in 5% CO2, the cells were washed with PBS and 50 μL of 100 μg/mL solution of propidium iodide was added to each well. The cells were analyzed by flow cytometry (BD Facscan) and the viable cells denoted as the percentage of cells excluding propidium iodide.

Bcl-w ΔC29 = molecular target: T1, Bcl-w ΔC29 (Homo sapiens, UniProt Q92843); experiment: Alphascreen GST competition assay with biotinylated Bim BH3-26 peptide; type: binding; settings: Examples 8 and 9
T1 sequence (Q92843 1-164 limits assumed): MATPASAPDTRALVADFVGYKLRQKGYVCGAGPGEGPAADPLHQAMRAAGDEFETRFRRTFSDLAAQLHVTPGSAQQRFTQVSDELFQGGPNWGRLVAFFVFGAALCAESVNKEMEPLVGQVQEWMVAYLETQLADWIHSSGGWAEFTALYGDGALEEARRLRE

[3] = molecular target: GST tagged Bcl w delta C29 protein (UniProt Q92843); experiment: competition assay; compared with the linear 16-mer
[4] = molecular target: GST tagged Bcl w delta C29 protein (UniProt Q92843); experiment: competition assay; competitor: biotinylated Bim BH3 peptide
Mcl-1 ΔC23 [5] = molecular target: Mcl-1 ΔC23 (UniProt Q07820); experiment: SPR, Biacore S51, direct binding
Bcl-xL ΔC25 [6] = molecular target: T2, Bcl-xL ΔC25 (Homo sapiens, UniProt Q07817); experiment: SPR, Biacore S51, direct binding
Mcl-1 ΔC23 [7] = molecular target: Mcl-1 ΔC23 (UniProt Q07820); experiment: AlphaScreen GST detection; competitor: biotinylated BakBH3 peptide; second of two values
[8] = molecular target: GST tagged Bcl w delta C29 protein (UniProt Q92843); experiment: AlphaScreen GST detection; competitor: biotinylated BimBH3 peptide
Bcl-xL ΔC25 [9] = molecular target: T2, Bcl-xL ΔC25; experiment: as above
Mcl-1 ΔC23 [10] = molecular target: Mcl-1 ΔC23 (UniProt Q07820); experiment: AlphaScreen GST detection; competitor: biotinylated BakBH3 peptide
[11] = molecular target: GST tagged Bcl w delta C29 protein (UniProt Q92843); experiment: AlphaScreen GST detection; competitor: biotinylated BimBH3 peptide; second of two values
Bcl-xL ΔC25 [12] = molecular target: T2, Bcl-xL ΔC25; experiment: as above
[13] = molecular target: GST tagged Bcl w delta C29 protein (UniProt Q92843); experiment: competition assay; competitor: biotinylated Bim-BH3 peptide
[14] = molecular target: 6-His tagged Bcl w delta C10 protein (UniProt Q92843); experiment: as above
Bcl-2 ΔC22 = Bcl-2 ΔC22 (Homo sapiens, UniProt P10415); experiment: as above
[15] = molecular target: GST tagged Bcl w delta C29 protein (UniProt Q92843); experiment: competition assay; competitor: biotinylated BIM-BH3 peptide

% Helicity [1]: 16%
Molecule: CC[C@H](C)[C@H](NC(C)=O)C(=O)N[C@@H](C)C(=O)N[C@@H](CCC(N)=O)C(=O)N[C@H]1CCC(=O)NCC(=O)NCCNC(=O)CC[C@@H](C(=O)N[C@@H](Cc2ccccc2)C(N)=O)NC(=O)[C@H](CC(=O)O)NC(=O)CNC(=O)[C@H]([C@@H](C)CC)NC(=O)[C@H](CCCNC(=N)N)NC(=O)[C@H](CCCNC(=N)N)NC(=O)[C@H](CC(C)C)NC1=O [D, Ac-IAQ-E-LRRIGD-E-F-NH2] (HELM PEPTIDE1{[ac].I.A.Q.E.L.R.R.I.G.D.E.F.[am]}|CHEM1{[O=C(CN[*:1])NCCN[*:2]]}$PEPTIDE1,CHEM1,5:R3-1:R1|PEPTIDE1,CHEM1,12:R3-1:R2$$$V2.0)

Molecule: COc1cc([C@@H]2c3cc4c(cc3[C@@H](O[C@@H]3O[C@@H]5CO[C@@H](C)O[C@H]5[C@H](O)[C@H]3O)[C@H]3COC(=O)[C@H]23)OCO4)cc(OC)c1O [Etoposide]
viability at 0.015 µM ([2]; concentration 0.015 μM): 80% | viability at 0.0312 µM ([2]; concentration 0.0312 μM): 50% | viability at 0.0625 µM ([2]; concentration 0.0625 μM): 21% | viability at 0.125 µM ([2]; concentration 0.125 μM): 0% | viability at 0.25 µM ([2]; concentration 0.25 μM): 0% | viability at 0.5 µM ([2]; concentration 0.5 μM): 0% | viability at 1 µM ([2]; concentration 1.0 μM): 0%

binding affinity for Bcl-w ΔC29 compared to the linear 16-mer, in words (Bcl-w ΔC29): drop in binding
Molecule: CC[C@H](C)[C@H](NC(C)=O)C(=O)N[C@@H](Cc1ccccc1)C(=O)N[C@H](C(=O)N[C@@H](C)C(=O)N[C@@H](CCC(N)=O)C(=O)N[C@@H](CCC(=O)O)C(=O)N[C@@H](CC(C)C)C(=O)N[C@@H](CCCNC(=N)N)C(=O)N[C@@H](CCCNC(=N)N)C(=O)N[C@H](C(=O)NCC(=O)N[C@@H](CC(=O)O)C(=O)N[C@@H](CCC(=O)O)C(=O)N[C@@H](Cc1ccccc1)C(=O)N[C@@H](CC(N)=O)C(=O)N[C@@H](C)C(N)=O)[C@@H](C)CC)[C@@H](C)CC [N] (Ac-IFIAQELRRIGDEFNA-NH2)

fold decrease in affinity against the linear 16-mer [3]: 4 to 5 fold | IC50 [4]: 12 nM
Molecule: Ac-IWIAQELRRIGDEFAN-NH2 [Peptide R (linear) Ac-…-NH2]

fold loss of binding affinity against the linear 16-mer [3]: 2 fold | IC50 [4]: 5.8 nM
Molecule: Ac-IWIAQELRRIGDEFNN-NH2 [Peptide U (linear) Ac-…-NH2]

Kd (Mcl-1 ΔC23 [5]): 1200 nM | Kd (Bcl-xL ΔC25 [6]): 5200 nM | IC50 (Mcl-1 ΔC23 [7]): 360 nM | IC50 [8]: 820 nM | IC50 (Bcl-xL ΔC25 [9]): 7000 nM | IC50 (Mcl-1 ΔC23 [10]): 400 nM | IC50 [11]: 800 nM | IC50 (Bcl-xL ΔC25 [12]): 6300 nM | IC50 [13]: 4700 nM | IC50 [14]: 870 nM | IC50 (Bcl-2 ΔC22): 240000 nM
Molecule: Ac-IAQELRRIGDEF-NH2 [Linear 12mer Ac-…-NH2]

fold decrease in binding affinity against the linear 16-mer [3]: 100 fold | IC50 [4]: 360 nM
Molecule: Ac-IWAAQELRRIGDEFNA-NH2 [Peptide I (linear) Ac-…-NH2]

fold decrease in binding affinity against the linear 16-mer [3]: 3 fold | IC50 [4]: 7.3 nM
Molecule: Ac-IWIAQELRRAGDEFNA-NH2 [Peptide K (linear) Ac-…-NH2]

fold decrease in binding affinity against the linear 16-mer [3]: 25000 fold | IC50 [4]: 64000 nM
Molecule: Ac-IWAAQEARRAGDEANA-NH2 [Peptide M (linear) Ac-…-NH2]

IC50 [15]: 0.3 nM
Molecule: Ac-IWIAQELRRIGDEFNA-NH2 (linker 6-13 via ‑NHCH2C(═O)(CH2)2NH2‑)

IC50 [13]: 160 nM | IC50 [14]: 40 nM | IC50 (Bcl-2 ΔC22): 6900 nM
B1: Peptide D: Ac-IAQ-E-LRRIGD-E-F-NH2 with a -NHCH2C(═O)NHCH2CH2NH- linker (peptide)
peptide: IAQELRRIGDEF
HELM: PEPTIDE1{[ac].I.A.Q.E.L.R.R.I.G.D.E.F.[am]}|CHEM1{[O=C(CN[*:1])NCCN[*:2]]}$PEPTIDE1,CHEM1,5:R3-1:R1|PEPTIDE1,CHEM1,12:R3-1:R2$$$V2.0
SMILES: CC[C@H](C)[C@H](NC(C)=O)C(=O)N[C@@H](C)C(=O)N[C@@H](CCC(N)=O)C(=O)N[C@H]1CCC(=O)NCC(=O)NCCNC(=O)CC[C@@H](C(=O)N[C@@H](Cc2ccccc2)C(N)=O)NC(=O)[C@H](CC(=O)O)NC(=O)CNC(=O)[C@H]([C@@H](C)CC)NC(=O)[C@H](CCCNC(=N)N)NC(=O)[C@H](CCCNC(=N)N)NC(=O)[C@H](CC(C)C)NC1=O

IC50 [15]: 2.5 nM | IC50 [4]: 2.5 nM
Molecule: Ac-IWIAQELRRIGDEFNA-NH2 [linear 16-mer Ac-…-NH2]

IC50 [13]: 120 nM | IC50 [14]: 230 nM | IC50 (Bcl-2 ΔC22): 2600 nM
Molecule: Ac-IAQELRRIGDEF-NH2 (linker 4-11 via 1,6‑diaminohexane) [Peptide C: Ac-IAQ-E-LRRIGD-E-F-NH2 with a 1,6-diaminohexane linker]

IC50 [13]: 1800 nM | IC50 [14]: 2600 nM | IC50 (Bcl-2 ΔC22): 26000 nM
Molecule: Ac-EIAQELREIGDEF-NH2 (linker 1-8 via 1,5‑diaminopentane) [Peptide A of Example 7: Ac-E-IAQELR-E-IGDEF-NH2 with a 1,5-diaminopentane linker (first position)]

fold decrease in binding affinity against the linear 16-mer [3]: 1000 fold | IC50 [4]: 3700 nM
Molecule: Ac-IWIAQEARRIGDEFNA-NH2 [Peptide J (linear) Ac-…-NH2]

fold decrease in binding affinity against the linear 16-mer [3]: 1000 fold | IC50 [4]: 3500 nM
Molecule: Ac-IWIAQELRRIGDEANA-NH2 [Peptide L (linear) Ac-…-NH2]

Kd (Mcl-1 ΔC23 [5]): 920 nM | IC50 (Mcl-1 ΔC23 [7]): 660 nM | IC50 (Bcl-xL ΔC25 [9]): 960 nM | IC50 (Mcl-1 ΔC23 [10]): 650 nM | IC50 (Bcl-xL ΔC25 [12]): 890 nM
Molecule: Ac-IAQQLRRIGDQF-NH2 [L2 Ac-…-NH2]

Kd (Mcl-1 ΔC23 [5]): 10 nM | Kd (Bcl-xL ΔC25 [6]): 10 nM | IC50 (Mcl-1 ΔC23 [7]): 3 nM | IC50 [8]: 40 nM | IC50 (Bcl-xL ΔC25 [9]): 57 nM | IC50 (Mcl-1 ΔC23 [10]): 3 nM | IC50 [11]: 34 nM | IC50 (Bcl-xL ΔC25 [12]): 54 nM | IC50 [13]: 150 nM | IC50 [14]: 65 nM | IC50 (Bcl-2 ΔC22): 290 nM
Molecule: Ac-IAQELRRIGDEF-NH2 (linker 4-11 via 1,5‑diaminopentane) [Acetyl-IAQ(E1)LRRIGD(E2)F-amide with a 1,5-diaminopentane linker (second position)]

IC50 [15]: 0.5 nM
Molecule: Ac-IWIAQELRRIGDEFNA-NH2 (linker 6-13 via 1,5‑diaminopentane) [Peptide E: constrained 16-mer with a pentane linker tethering the two glutamate residues]

Reference: patent publication US20070197430A1, “Conjugates And Therapeutic Uses Thereof” (priority 2004, published 2007)
